From patent US20240209044

What was measured:
[1] = biological target: T1, ZAP, zeta activating peptide, the PKCzeta uORF-encoded peptide
T1 chain: MGPREARLQVHQLQTAGP

[2] = biological target: T2, ZIP, zeta inhibitory peptide, the pseudo-substrate peptide of the PKCzeta regulatory domain
T2 chain: SIYRRGARRWRKL

B1: PKCtheta, HA-tagged, immunoprecipitated from HEK293T lysate (protein)
chain: MSPFLRIGLSNFDCGSCQSCQGEAVNPYCAVLVKEYVESENGQMYIQKKPTMYPPWDSTFDAHINKGRVMQIIVKGKNVDLISETTVELYSLAERCRKNNGKTEIWLELKPQGRMLMNARYFLEMSDTKDMNEFETEGFFALHQRRGAIKQAKVHHVKCHEFTATFFPQPTFCSVCHEFVWGLNKQGYQCRQCNAAIHKKCIDKVIAKCTGSAINSRETMFHKERFKIDMPHRFKVYNYKSPTFCEHCGTLLWGLARQGLKCDACGMNVHHRCQTKVANLCGINQKLMAEALAMIESTQQARCLRDTEQIFREGPVEIGLPCSIKNEARPPCLPTPGKREPQGISWESPLDEVDKMCHLPEPELNKERPSLQIKLKIEDFILHKMLGKGSFGKVFLAEFKKTNQFFAIKALKKDVVLMDDDVECTMVEKRVLSLAWEHPFLTHMFCTFQTKENLFFVMEYLNGGDLMYHIQSCHKFDLSRATFYAAEIILGLQFLHSKGIVYRDLKLDNILLDKDGHIKIADFGMCKENMLGDAKTNTFCGTPDYIAPEILLGQKYNHSVDWWSFGVLLYEMLIGQSPFHGQDEEELFHSIRMDNPFYPRWLEKEAKDLLVKLFVREPEKRLGVRGDIRQHPLFREINWEELERKEIDPPFRPKVKSPFDCSNFDKEFLNEKPRLSFADRALINSMDQNMFRNFSFMNPGMERLIS
With B1 the “phosphorylation of MBP by PKC isoforms (32P-γATP in vitro kinase assay)” value (from here on “phosphorylation of MBP by PKC isoforms”) [1] was “the peptide had no effect on the phosphorylation of MBP by the PKC isoforms PKCeta (PKCη), PKCtheta (PKCθ), PKCgamma (PKCγ), and PKCalpha (PKCα)”.

B2: PKCzeta, HA-tagged, immunoprecipitated from HEK293T lysate (protein)
chain: MPSRTGPKMEGSGGRVRLKAHYGGDIFITSVDAATTFEELCEEVRDMCRLHQQHPLTLKWVDSEGDPCTVSSQMELEEAFRLARQCRDEGLIIHVFPSTPEQPGLPCPGEDKSIYRRGARRWRKLYRANGHLFQAKRFNRRAYCGQCSERIWGLARQGYRCINCKLLVHKRCHGLVPLTCRKHMDSVMPSQEPPVDDKNEDADLPSEETDGIAYISSSRKHDSIKDDSEDLKPVIDGMDGIKISQGLGLQDFDLIRVIGRGSYAKVLLVRLKKNDQIYAMKVVKKELVHDDEDIDWVQTEKHVFEQASSNPFLVGLHSCFQTTSRLFLVIEYVNGGDLMFHMQRQRKLPEEHARFYAAEICIALNFLHERGIIYRDLKLDNVLLDADGHIKLTDYGMCKEGLGPGDTTSTFCGTPNYIAPEILRGEEYGFSVDWWALGVLMFEMMAGRSPFDIITDNPDMNTEDYLFQVILEKPIRIPRFLSVKASHVLKGFLNKDPKERLGCRPQTGFSDIKSHAFFRSIDWDLLEKKQALPPFQPQITDDYGLDNFDTQFTSEPVQLTPDDEDAIKRIDQSEFEGFEYINPLLLSTEESV
In the case of B2, the “PKCzeta phosphorylation of MBP (32P-γATP in vitro kinase assay)” value [1] is reported as “did not inhibit PKCzeta phosphorylation of MBP, rather significantly increased the phosphorylation on MBP”, the “kinase activity (phosphorylation of MBP, 32P-γ-ATP in vitro kinase assay, dose series of peptide)” value [1] is reported as “the ZAP peptide activates the kinase activity of both PKCzeta and PKMzeta” and the “phosphorylation of MBP by PKC isoforms” value [1] is reported as “enhanced the phosphorylation of PKC isoforms of the novel PKC sub-family of PKCzeta, PKCdelta and PKCepsilon”. For the same protein, the “kinase activity (phosphorylation of MBP, 32P-γ-ATP in vitro kinase assay, dose series of peptide)” value [2] was “the known PS ZIP peptide inhibits their activity”.

B3: PKCepsilon, HA-tagged, immunoprecipitated from HEK293T lysate (protein)
chain: MVVFNGLLKIKICEAVSLKPTAWSLRHAVGPRPQTFLLDPYIALNVDDSRIGQTATKQKTNSPAWHDEFVTDVCNGRKIELAVFHDAPIGYDDFVANCTIQFEELLQNGSRHFEDWIDLEPEGRVYVIIDLSGSSGEAPKDNEERVFRERMRPRKRQGAVRRRVHQVNGHKFMATYLRQPTYCSHCRDFIWGVIGKQGYQCQVCTCVVHKRCHELIITKCAGLKKQETPDQVGSQRFSVNMPHKFGIHNYKVPTFCDHCGSLLWGLLRQGLQCKVCKMNVHRRCETNVAPNCGVDARGIAKVLADLGVTPDKITNSGQRRKKLIAGAESPQPASGSSPSEEDRSKSAPTSPCDQEIKELENNIRKALSFDNRGEEHRAASSPDGQLMSPGENGEVRQGQAKRLGLDEFNFIKVLGKGSFGKVMLAELKGKDEVYAVKVLKKDVILQDDDVDCTMTEKRILALARKHPYLTQLYCCFQTKDRLFFVMEYVNGGDLMFQIQRSRKFDEPRSRFYAAEVTSALMFLHQHGVIYRDLKLDNILLDAEGHCKLADFGMCKEGILNGVTTTTFCGTPDYIAPEILQELEYGPSVDWWALGVLMYEMMAGQPPFEADNEDDLFESILHDDVLYPVWLSKEAVSILKAFMTKNPHKRLGCVASQNGEDAIKQHPFFKEIDWVLLEQKKIKPPFKPRIKTKRDVNNFDQDFTREEPVLTLVDEAIVKQINQEEFKGFSYFGEDLMP
B3 was tested, and the “phosphorylation of MBP by PKC isoforms” value [1] was “enhanced the phosphorylation of PKC isoforms of the novel PKC sub-family of PKCzeta, PKCdelta and PKCepsilon”.
